Laboratory results published in PMC6151454, “The Recognition of Calmodulin to the Target Sequence of Calcineurin—A Novel Binding Mode” (Molecules : A Journal of Synthetic Chemistry and Natural …, 2017).

Biological target: Calmodulin (CaM), chicken, recombinant (chicken, UniProt P62149 2-149)
Assay: circular dichroism titration; various amounts of CaNp added to a fixed amount of CaM; far-UV CD; 100 mM KCl, 2 mM CaCl2, pH 6.5
Conditions: both partners purified

stoichiometry N: 1
B1: CaM-binding domain (target peptide) of calcineurin A, residues 391-414 (CaNp) (peptide)
peptide: ARKEVIRNKIRAIGKMARVFSVLR
notes: CaM target domain of the calcineurin catalytic subunit (CaN-A) α-isoform, residue 391-414; 13C,15N-labelled or unlabelled in the NMR samples; also called target peptide of CaN; not shown: CaM with factor Xa cleavage site IEGR (CaM-CaNp hybrid molecule), N-terminal, cleaved
